Reference: the RNAGym collection of RNA variant scans (doi:10.1073/pnas.2313332121)
Variants at the floor of the assay were thinned out.

B1: TPR 5TU (parent)
chain: GGAUCUUCUCGAUCUAACAAAAAAGACAAAUCUGCCACAAAGCUUGAGAGCAUCUUCGGAUGCAGAGGCGGCAGCCUUCGGUGGCGCGAUAGCGCCAACGUUCUCAACUAUGACACGCAAAACGCGUGCUCCGUUGAAUGGAGUUUAUCAUG

Variants of: B1
Test: polymerase ribozyme fitness, log enrichment relative to wild type (log ratio); higher = more active; in vitro selection for triplet polymerase activity
Procedure, shortened: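 Mutant libraries were PCR-built and transcribed for each subunit of a heterodimeric triplet polymerase ribozyme and selected for one round in triplicate at −7 °C, frozen, before gel excision of extended constructs and streptavidin-bead capture. Input and output libraries were Illumina-sequenced, keeping genotypes with ≥10 input reads and ≥1 read per output. Fitness is a logarithmic ratio of genotype to wild-type enrichment, in base 2, using inverse-variance-weighted replicate averages.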

G11C A30U C95A C108G U148A and G11U G42U G68A G86U C95G A137C cannot be ordered by “polymerase ribozyme fitness (log ratio)” value: ≤ -4.2 for the first, ≤ -4.2 for the second.

C10U C27G C54U G92C C114G and U9A C93G cannot be ordered by “polymerase ribozyme fitness (log ratio)” value: ≤ -4.2 for the first, ≤ -4.2 for the second.

G11U A23U C32U C57U G58A U77C C93G C96U A97U G100U A110U G143C and C10A A12G A60G C93A cannot be ordered by “polymerase ribozyme fitness (log ratio)” value: ≤ -4.2 for the first, ≤ -4.2 for the second.

G11C A12G A41U C76A G83A C103G C114A and U9G C85U G92U U145A cannot be ordered by “polymerase ribozyme fitness (log ratio)” value: ≤ -4.2 for the first, ≤ -4.2 for the second.

Going from C10U C54U U55G to C10U A40G, the “polymerase ribozyme fitness (log ratio)” value rises from ≤ -4.2 to -4.12.

C10U A19U A21U C32G G42A G80C A137U and C10A C14U A30U C51A C57G G84A cannot be ordered by “polymerase ribozyme fitness (log ratio)” value: ≤ -4.2 for the first, ≤ -4.2 for the second.

C10U U77G C87A A91C C108U G133A and U9A C87A cannot be ordered by “polymerase ribozyme fitness (log ratio)” value: ≤ -4.2 for the first, ≤ -4.2 for the second.

C10U A22G U44A G100U C103A and U9G A41U U53A C96A U102A A150U cannot be ordered by “polymerase ribozyme fitness (log ratio)” value: ≤ -4.2 for the first, ≤ -4.2 for the second.

Compared with C10A A91U U101G, G11A A21U G83U G117U is higher in “polymerase ribozyme fitness (log ratio)” value: -4.05 for the first, -2.13 for the second.

C10U G25U A40U C79U G84A A142C and U9G A29G C85U A121U G128U cannot be ordered by “polymerase ribozyme fitness (log ratio)” value: ≤ -4.2 for the first, ≤ -4.2 for the second.

C10G A29U G34U C38A C87G G88A A122U G136C and C10A A23U G83U cannot be ordered by “polymerase ribozyme fitness (log ratio)” value: ≤ -4.2 for the first, ≤ -4.2 for the second.

Compared with C10A U53A C85A C96G G100A U127C U146A, C10U is higher in “polymerase ribozyme fitness (log ratio)” value: ≤ -4.2 for the first, -2.16 for the second.

C10G and C10A are within 0.2 log units of each other in “polymerase ribozyme fitness (log ratio)” value: -2.78 for the first, -2.83 for the second.

U9A A21U and C10U A22U A29G U61A C95G are within 0.2 log units of each other in “polymerase ribozyme fitness (log ratio)” value: -3.81 for the first, -4 for the second.

C10G A52U C72U G86U C93U C116G G124A U144C and G11U C32A G50A C116U A121U C132U U144G cannot be ordered by “polymerase ribozyme fitness (log ratio)” value: ≤ -4.2 for the first, ≤ -4.2 for the second.

C10U A60G A64U C85U C129A and G11C A19G A52G G68C A97G C132A U134C U144A cannot be ordered by “polymerase ribozyme fitness (log ratio)” value: ≤ -4.2 for the first, ≤ -4.2 for the second.

Compared with G11A C14A A40G C79A C93A G124A, G11A U13C C36U A49U A60U is higher in “polymerase ribozyme fitness (log ratio)” value: ≤ -4.2 for the first, -4.19 for the second.

U9A A28G A41C A64U G80U C87A C95U C131G and C10U G80C G84U C87A C105A U151G cannot be ordered by “polymerase ribozyme fitness (log ratio)” value: ≤ -4.2 for the first, ≤ -4.2 for the second.

U9G G74A A91G C93U G141U and G11A A12C A23C G46A A73U G80C A97U U109A U145A cannot be ordered by “polymerase ribozyme fitness (log ratio)” value: ≤ -4.2 for the first, ≤ -4.2 for the second.

First: C10U C105A
Second: C10U A29G A47C U55G A60U C95U U144A U146G
The “polymerase ribozyme fitness (log ratio)” value of the first is higher: -3.59 for the first, ≤ -4.2 for the second.

C10G C76A G83A A91U A106C C108A U130A and C10U C54A C69U C75U C87A cannot be ordered by “polymerase ribozyme fitness (log ratio)” value: ≤ -4.2 for the first, ≤ -4.2 for the second.

G11A U61A C85A A122C A150C and C10U A26U G42A A47U A89C C96U A107U G112C cannot be ordered by “polymerase ribozyme fitness (log ratio)” value: ≤ -4.2 for the first, ≤ -4.2 for the second.

First: U9C C85U
Second: C10G U61C G86C C105G A119C
The “polymerase ribozyme fitness (log ratio)” value of the first is higher: -3.24 for the first, ≤ -4.2 for the second.

G11C C32G G34C G88C A106G C108A A110U C149G and U9C A52G U53A C114G U145G cannot be ordered by “polymerase ribozyme fitness (log ratio)” value: ≤ -4.2 for the first, ≤ -4.2 for the second.

C10G A41G A115G and U9A C75U G88C C99G U101A C118U A137C cannot be ordered by “polymerase ribozyme fitness (log ratio)” value: ≤ -4.2 for the first, ≤ -4.2 for the second.

G11A C27A A73C G74A G81A A89U C93G G126U and C10U C18G A19C A40U C87G G88U cannot be ordered by “polymerase ribozyme fitness (log ratio)” value: ≤ -4.2 for the first, ≤ -4.2 for the second.

Going from C10U A17G A23C A24C A26G U31G A39U U44A C54G C57G G86U A97U A142C to G11C C38A G59A C125G, the “polymerase ribozyme fitness (log ratio)” value rises from ≤ -4.2 to -2.58.

Compared with U9A U31G C57U G74C G92C, C10U U55G is higher in “polymerase ribozyme fitness (log ratio)” value: ≤ -4.2 for the first, -3.19 for the second.

U9C U31A U55A G59C U82G C108A C129G U144C and C10G A39U G84A cannot be ordered by “polymerase ribozyme fitness (log ratio)” value: ≤ -4.2 for the first, ≤ -4.2 for the second.

C10G A28C C51U C87U G88A A91C G117C G124U U130G and G11C G25U A52C C54U C95U A107G U144A cannot be ordered by “polymerase ribozyme fitness (log ratio)” value: ≤ -4.2 for the first, ≤ -4.2 for the second.

Going from G11U A12G U15A G58C G94U U151G to C10G C95U, the “polymerase ribozyme fitness (log ratio)” value rises from ≤ -4.2 to -3.16.

C10A A37U G48A A64G G128U A142C and G11C C14A A16G C87U cannot be ordered by “polymerase ribozyme fitness (log ratio)” value: ≤ -4.2 for the first, ≤ -4.2 for the second.

Going from G11C U13A A64U G74C C85U C96G U102C to G11A U56A C99U G143C, the “polymerase ribozyme fitness (log ratio)” value rises from ≤ -4.2 to -3.7.

C10A C27G G46A C75A C96A and U9G G58C C93G C118U G143A U144C cannot be ordered by “polymerase ribozyme fitness (log ratio)” value: ≤ -4.2 for the first, ≤ -4.2 for the second.

C10A A41C C76A A91U C96G A121C U127G and G11A C27G U53A G83U G86A G140A cannot be ordered by “polymerase ribozyme fitness (log ratio)” value: ≤ -4.2 for the first, ≤ -4.2 for the second.

C10A C54G G80C G81A C85U C129A U135C and U9G A24U C96U U144G cannot be ordered by “polymerase ribozyme fitness (log ratio)” value: ≤ -4.2 for the first, ≤ -4.2 for the second.

C10A C54G A73U A120U and U9G C14G A110C C123U G141A cannot be ordered by “polymerase ribozyme fitness (log ratio)” value: ≤ -4.2 for the first, ≤ -4.2 for the second.

Going from C10G C18G A21C G25A G65A C79A U104G to C10A A22U A37C U134C A142G, the “polymerase ribozyme fitness (log ratio)” value rises from ≤ -4.2 to -4.

U9G A19C A23G A39G C93G U139A G152U and U9G A20U U31C C38G G86A U127G cannot be ordered by “polymerase ribozyme fitness (log ratio)” value: ≤ -4.2 for the first, ≤ -4.2 for the second.

Going from C10G A97U U130G to G11A C85U G92C G143A, the “polymerase ribozyme fitness (log ratio)” value rises from ≤ -4.2 to -4.01.

Going from U9G A21U C35U U55A C108U C118U G128A G133A to G11A U55A, the “polymerase ribozyme fitness (log ratio)” value rises from ≤ -4.2 to -1.11.

In the case of G11C U15G A40C C87A U148G, the “polymerase ribozyme fitness (log ratio)” value is reported as ≤ -4.2.
